Source: publication doi:10.1101/2024.04.24.590897 (bioRxiv, 2024)

Biological target: Flag-LEDGF/p75 (UniProt O75475 1-530)
Test: AlphaScreen or HTRF

binding result: binds
B1: GST-LEDGF/p52 (natural protein)
chain: not shown
